According to the supplement of paper PMC12636428:

Test system: Saccharomyces cerevisiae
Assay: transcriptional activation domain activity (GFP:mCherry ratio, weighted mean of sorted bins, harmonized to initial dataset scale) (arbitrary fluorescence ratio units); higher = stronger transcriptional activation
Settings: beta-estradiol 1 µM; induction time 4 h
Description: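 53-aa protein tiles (fungal proteins plus yeast TF control tiles) fused C-terminally to a DBD-estrogen-binding domain-mCherry synthetic TF, integrated in S. cerevisiae (URA3 locus) with a GFP reporter. Cells were induced with 1 uM beta-estradiol for 4 h at 30 C, FACS-sorted into 8 bins by GFP:mCherry ratio and barcodes sequenced. Activity is the read-weighted mean bin fluorescence (GFP:mCherry), averaged over barcodes (median 12); tiles under 50 reads were discarded. New active-learning values were harmonized by linear fit onto the scale of the initial (Hummel et al.) dataset. The assay saturates at low and high signal.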

Row | Sequence | transcriptional activation domain activity
1 | MSWQRVYRGWVVNGPGFGFFGRYYWIIIIRLAVPRRLLTCSCWCFGWLLFFLI | 65700
2 | MAFLYLELPLVGMTFGGGRRGWGFMYLFLFLSFSFFFIQLWFGLVWVMTLCEV | 63600
3 | NTMQFSMNLGNSTVSGPFSGLVNGLTPKGTNMEPSLWASWSYYALWLPTWGTT | 52100
4 | MDTLSSSFAHILCIFFYLHPFLLFFSFSLFPFFVFATPATRTGVRLFYFFFLF | 41600
5 | LYLSLLKRKTTIWFFVYVVLQNYFLSTLYGRNWFFLFSSQHAPTWSIWLLAFI | 57300
6 | LGGNSGRATPGGGESRASTRKSKSKGAAKSRSRSPSRGRNRAGSKKKAGAAAT | 38700
7 | LLFLPYSCASFFFSLFSLFYFFLFYFFLLFSHIRIFISLSIHFSSSCFSTFLL | 58300
8 | AAAASSTPCLRRRPAPAPATARSSAARPAGCSCGGRSRRCGGRRTPSPSRRGP | 20300
9 | VSFDFPRSPYPNGSFESFLRDIFARCNLLEVLVFRTKVKSLRGWLKHYTYFAD | 75400
10 | MRGVCSFCSFCSFSFLFLFLFLFLFFSFFSFFSFCFFLFFPSFLSVSLSFLLS | 71100
11 | MFTGTLWLAFFLDCCLWWYMMFLCFWYEACLHVLLLGFHVYCLLWCMILSLSL | 58200
12 | MWLVEVQLLHQSHSLLSHIICLFFLSPHLPSFVFSGALFVYSVMLVSLFFLYL | 37400
13 | EEEEEEEGGETKKKRRRAASAAAKGRKGGRKSTASEEDEVVGGEESENRASKK | 25400
14 | MLRLYHLMWDSGDYIYTIIGGWLPLPRDLMYVPFPGFYLKYMIFPTPLTLSVL | 43600
15 | AALALKFRYRIDGSTEDRWISVSRMLNKIAHWYLPQKYTFLHPSGIVSYAVIR | 66900
16 | KKKSKKRKEKKEKKRRSKSKKKGKKKRRSRSNSGSSSDSSSEDSSSSSSDSSD | 50500
17 | AVTCMTIFATISLKLNQQDMLTPWYTSLPLHRRLLHQWFCGLLHWMGFYLVWS | 65900
18 | RIVSSLFFICHGNYYIAFVILSKALDDYVPKIYVLNLNLNHLYLGLLIMCLLL | 35800
19 | MSLSFFFFSFFFLFFIIIFGRSRWLCYDGFGFFFFSFFLLMLAVFLFLLTYFT | 50800
20 | MNQTSRFFSPFFSPFFSPFFSPFFLLFFLFSLFLSFPSFLLPCFLLLFLSFYF | 48800
21 | TLTQRLSGSMIYIWCSGGVVFAIVLALQVLVLFALLNVITCLEGHMLSIHGWP | 39900
22 | ILRCYLQYIFALTLVFFWLLYTLTCSISQFSRHLRSWTCWIFYSLYRRILFLG | 56200
23 | YLHAVLCELQSSFNRKATTRSKLTHTPNLPEYTFPFAWLTLPFAAARRCTPAG | 66600
24 | EEDDVKSEKSSRSKRRESTKEEVASPVRSERGSDKSSRSKKRDIVAEAAAIVS | 35500
25 | QGIEPLLPPKWGMLVGEARDLLVLFGALGEQERWNFWTTGCSYMTAMVLLTAN | 53000
26 | ASVERCHRNIVPNGCAVFQAGGLVVVLVEVSRKSYLASLVPVIVNAILNEHQI | 43500
27 | RALPPFFSFFPFFRSCPLPLLSLPFSHPCFPLRLVSFFFFLLFCFSFFFILTC | 32900

Row | Sequence | transcriptional activation domain activity
28 | SAGTAQAGKKPRILLKVNGRSYQRVDCVGRGGSGKVYKVTAENGKMFAMKRVS | 45100
29 | MLVLLLLLLLLLLLLFLLLPLLLLLPLLLCLYMPCIVRCSNHEVHILLISGTG | 72900
30 | MFLLFRSPCLLVLYIFWVGQSGVGLRGVGVHHFFFFFFSLLAALLLFCLCGAI | 29400
31 | ESVSESESASASESAAEEASAAPEEDAMWSNIMKKFARRDEEESVSESASASE | 54900
32 | ELILVQDLCGTFCCSMQFLVLMDLLGNVVLPSSVIFFYYLIFAYFFGYPVAMP | 60100
33 | DKKEAKPVNGESSKDTKPSGKEKEKELKDNAKPKEAKKGEGNKGGLAKAAAAP | 25800
34 | AVKKEPTPEEDEEEEEEEPAPKPKARGGRKAKASAAVDADAAQAKPKRGRAKK | 30300
35 | MLVICLLDLLLSIMRCKRNLIQFILVCTKDGFCVGLMTKSYKRSLLVKRLFCT | 39300
36 | FQTFYSNFKRKVLVWSLRFTNLTYNQPLVWHATFVYILALLSMPWFKAKFIPS | 43800
37 | LLLFNDEYTHIWSTPSFALKWIYLFARYFPLLFQSTSYYLLTHILSRPPISWS | 61800
38 | SRHGREASEERARRKRRERQRDNDGGNRSRRKHTSPSSDDADRLTRKRKSRHE | 11000
39 | MAKKASGSADKKTADKGDKKGKAKPTADDGEDKQSKGKGALKAATAVNVRHIL | 44600
40 | VIEKLFWRVSALYICTHQFLLWALFMIRDYLLSKYPGSQLVLRCHMVLKIMLF | 46400
41 | LWYIGSFVTNGLVNVVGVWKICKLWSIWVRVAFTYMFMCFILFRALALHRIFI | 59200
42 | LNKVCCIFCFLFSFYLLSFYSPFYFCFAFILLLSFFFFFFFFLLLLYFLLLSI | 48600
43 | MDGVLKLPFLSFLFPFFLFFSSPPLFSPCFFPLFLSFFAVIAFFPFLCFCLPV | 29300
44 | VGSAINTRLTTPKLVDSPKRPGCLSISRKDQHETYLSLLMRLVVASKMCLSAY | 50800
45 | RAMYAPGFVELTLSYGTGGVTLYARYRSMIDALLKRPHATAFIFAGGYLSWLA | 52600
46 | RVVVVTDAFQKMDHFYWSLQAWLMYRFDALSACSTFAMTLLALYDDLSPGLTA | 83700
47 | MIVRLSSVPVSGCSFVVIEALLDFLVLPLRHFNLFIAPTSFFSHLYVFFFFGR | 56700
48 | QQQEEEEKKKEVGGEAEGYEERVINMGAKNSAPMKAGDRIIICTPGGGGWGKS | 9620
49 | RPVLDVALAAGEEDLSSKPRCQRCRKSKKGCDRQRPCGRCRDAGIGIEGCISE | 31500
50 | SHLEQMLWRICSLVIICAPMYLALSGKVFLIFSNSIGQLYILLCIRGPFLLYI | 69600
51 | PHLFVNQGKLESYAGVVTRVVDLVLGIYVIDDCHMLILTYWPLLSPLTVLRTG | 51000
52 | TKIGTGMGEQMLSREYYYIGTQLPLDRFLTFYYAHPGFHVNNIFIMLSVQLFM | 51100
53 | KRKACLVCDLICTLLLQGLVSNEELRIDYSHRRCDLWRRQRWIGFVTPLSILE | 36400
54 | LVTVRTMYRSYVEHGSGIGLTFARLITKDGLVLAISDFVLVFSTFLCVPFVKL | 44300

Row | Sequence | transcriptional activation domain activity
55 | SSKISCIHHVALKPSSGRYKRVTIIFNIIKAKRHLVTNSLRLMGLLLAIALYI | 53000
56 | ELGLGSWWVFIVLGHTSVLLELAPRYSFALYFLPVFLLTVTVVSFFFAFVLYL | 41100
57 | LRPGRQAQRRHVLALQARPALLLPPDLDARAVQPAHRQPQGPEEGGRAGPARP | 15100
58 | DDEADGKRRRVQRACDSCRKKKCDVRARVYLCGCSKTPRSASQLLRRARGAHG | 42500
59 | RSKAKDDDRSSDESDSKSSKSNKSKRSKHNNDSDSENGSSDEDRGSKRRKKSK | 23000
60 | AAKMAREYKKGERQAGRMRTEKGERGEEDGREREGTRRRREKEKEKNKEKGPR | 46000
61 | EEEERKQNEKRERAEERRKEKLEEEKEKREKDRKETEKKGGKGKGEQGKGKEK | 17200
62 | NGHGTHCSGTVAGKKYGVAKKANIKAVKVLRSNGSGTMSDVVKGVEFAAEQHS | 15600
63 | SYQHLHSVMKVINCLNLMLVVCYFSDVRYLKVLVKFWNELHNDVVSRNKLIIV | 42300
64 | SGFPSVGFNFFLFFSMMQPAMFLVSLFFQSLFFLCLNTCVCFFGFNFFFLVHW | 34800
65 | LKQMAGRDFEDILQCIMPVFEGLLPPPHDDLVMSLLFTLAFWHALAKLRLHTE | 56300
66 | MTLTLHPCAQTQFLTAFYCIYCHLTWRCSLLILINMGLGLIQRYVFPLLTFLF | 43400
67 | CPSFPSSFFVWVFEPRVAVPNLLGIIYLFCLVSHLPSSLFILSGTLLPLIVCL | 61300
68 | DGSNGIAQLFGVVFFLFFFLHIYYICWALGLVGFVSGRRGNIVWFVLLCLFLS | 63800
69 | RNGDKDSGHSRHKDRRHEHRSERRRYSDEGEEDRHRSHRSSHRSSRRRSRSRS | 31900
70 | MLLLLPLHMLLQRHTLPNFFTFFSIIIIFLFLFSFFFFLFFFFLLFFLLLPGG | 76400
71 | MYFVYTYSGLAFFFFFSFFWCTSIYLNILLVLFYLALGFCKVYFLLLFYLPKT | 39900
72 | AKILRELFLLYQPPEELIPSLQQWYLLVQACSGIVTSSDFGNTLFGIARLCLP | 30500
73 | RKPEAAAEKTAEAPEATGGEGTRRRASGRGRGRGRNGRGGRSGRAEGEEKKDE | 31500
74 | SRITSIGVWYLLIQMIWYILFGILYIWFFCQTWESFTVLLVVDYSLRIILCLM | 58100
75 | MTLCTFFGCLLTAYSPLLSIFFLYIAPNAQYVLLMVASAFFCLLALLLSSVIW | 55000
76 | KQYCVRPNSGRIEPGREVEVSVLLQAMKQEPAPDARCRDKFLVQSVTITSDQE | 20500
77 | QITNRILPSPAAVRYSGLIPLLVLVLVLPLFFLFFLFFFFFLFLFLFFLVLLY | 58800
78 | LASISSLQSSQSLDQNFSIPQSPPLSSMSFNFLTGNINETNQNHSNHQHSKSG | 22700
79 | EPFHLQHQSNHVYGKIVIGDSLMDEWFIVYLLRELSLWLDHLVIRYIYRRLMI | 59900
